Assay results reported in article PMC12564524, “AlphaFold-Guided Semi-Rational Engineering of an (R)-Amine Transaminase for Green Synthesis of Chiral Amines” (Biomolecules, 2025).

Experiments:
CC(=O)CCc1ccccc1 = system: T1, CC(=O)CCc1ccccc1; assay: HPLC quantification of (R)-1-methyl-3-phenylpropylamine, Michaelis-Menten fit; assay type: biochemical, Mycolicibacterium wolinskyi; conditions: pH 7.0, 40 °C, 30 min, 10 μg/mL enzyme, ketone 0-200 mM, standard assay has 20 mM (R)-2-aminoheptane, 2 mM PLP, 100 mM triethanolamine
T1 construct: N-terminal 6xHis tag, pET-15b, codon-optimised synthetic gene, E. coli BL21(DE3), Ni-NTA purified; about 48 kDa; PLP-dependent fold type IV
From the text: (§1) HPLC quantification of (R)-1-methyl-3-phenylpropylamine, Michaelis-Menten fit on MwoAT

[1] = substrate: CC(=O)CCc1ccccc1; assay: as above; assay type: biochemical, Mycolicibacterium wolinskyi; conditions: pH 7.0, 40 °C, 30 min, 10 μg/mL enzyme, ketone 0-200 mM, standard assay has 20 mM (R)-2-aminoheptane, 2 mM PLP, 100 mM triethanolamine
From the text: as §1

MwoAT (Mycolicibacterium wolinskyi; L175A)
Km (CC(=O)CCc1ccccc1): 54.25 ± 2.42 mM | kcat (CC(=O)CCc1ccccc1): 5.677 ± 0.0542 s⁻¹ | kcat/Km (CC(=O)CCc1ccccc1): 105 ± 5.67 M⁻¹ s⁻¹

MwoAT (Mycolicibacterium wolinskyi; L175G)
Km (CC(=O)CCc1ccccc1): 42.87 ± 0.43 mM | kcat (CC(=O)CCc1ccccc1): 5.32 ± 0.026 s⁻¹ | kcat/Km (CC(=O)CCc1ccccc1): 124 ± 2.5 M⁻¹ s⁻¹

B1: MwoAT (Mycolicibacterium wolinskyi) (protein)
chain: MQYSDYELDTTSPFAGGVAWIEGEYLPASEAKISIFDTGFGHSDLTYTVAHVWHGNIFRLGDHLDRLLDGARKLRLDPGMSKDELAEITKKCVSLSQLRESFVNLTVTRGYGKRKGEKDLSKLTHQVYIYAIPYLWAFPPSEQIFGTTAIVPRHVRRAGRNTVDPTIKNYQWGDLTAASFEAKDRGARTAILMDADNCVAEGPGFNVVIVKDGKLASPSRNALPGITRKTVFEIADAMGIEAELRDVTSHELYDADELMAVTTAGGVTPINSLDGEPIGDGAPGPLTVAIRDRFWALMDEPSALIEAIQY
notes: N-terminal 6xHis tag, pET-15b, codon-optimised synthetic gene, E. coli BL21(DE3), Ni-NTA purified; about 48 kDa; PLP-dependent fold type IV
Km [1]: 68.03 ± 1.68 mM | kcat [1]: 3.9358 ± 0.0035 s⁻¹ | kcat/Km [1]: 57.8 ± 1.5 M⁻¹ s⁻¹
